The numbers were not newly measured in US20050118241A1, “Platform for transdermal formulations (ptf)” (priority 2002, published 2005), which cites them from elsewhere.

The term half-life denotes the time in which the quantity being followed falls by half.

For the data set the following is noted: extensively degraded in liver, kidney and plasma.

glucagon: the half-life was 3 to 6 min.
